Measurements taken from the Human Domainome abundance scans (Beltran et al. 2025).

B1: Dynamin-binding protein, residues 242 to 304; numbered along this chain, Q6XZF7 (parent)
chain: EEPGTYGVALYRFQALEPNELDFEVGDKIRILATLEDGWLEGSLKGRTGIFPYRFVKLCPDTR

Variants of: B1
Test: abundance fitness (aPCA) (normalised: wild type 0, dead -1); higher = more abundant; growth selection in yeast, the domain comes from the species named
Conditions: Homo sapiens

Abundance fitness: each site, then its substitutions
F51: K -0.623, C -0.748, T -0.681, E -0.854, D -0.862, S -0.794, Y -0.497, L -0.492, G -0.85, A -0.919, I -0.752, R -0.655, W -0.59, N -0.791, P -0.524, H -0.792, V -0.224
G42: Y -0.924, V -0.575, T -0.997, W -0.506
G46: A -0.647, Y -0.802, H -0.73, N -0.326, W -0.725, V -0.6, E -0.473, Q -0.753, F -0.687, P -0.611, L -0.749, D -0.444, S -0.474, R -0.612, C -0.719, K -0.757, M -0.769, I -0.711
S43: W -0.393, C -0.245, N -0.308, I -0.539, Y -0.085, K -0.148, P -0.945, H -0.373, Q -0.133, V -0.326, R -0.346, M -0.127, D -0.32, A -0.106, F -0.226, L -0.368, E 0.219
F55: A -0.091, T -0.472, P -0.818, R -0.621, Q -0.774, V -0.614, Y 0.079, N -0.399, H -0.189, L -0.126, W -0.374, C -0.075, S -0.348, D -0.621, K -0.748, E -0.67
V56: P -0.334, S -0.719, A -0.521, C -0.864, L -0.412, Y -0.535, I -0.141, Q -0.664, G -0.729, N -0.711, F -0.525, T -0.594, D -0.716, R -0.887, H -0.696, W -0.826
R54: W -0.292, Y -0.286, Q -0.008, M -0.583, F -0.261, C -0.373, S 0.046, I -0.545, L -0.544, P -0.525, N 0.238, D -0.052, V -0.07, H 0.027, G -0.034, E -0.057, A -0.049, T -0.24
P52: N -0.767, V -0.816, D -0.817, C -0.7, Y -0.569, A -0.68, S -0.85, G -0.534, K -0.794, R -0.855, T -0.783, H -0.734, Q -0.912, M -0.401, L -0.567, F -0.826, W -0.583, I -0.741
L44: R -0.367, I -0.133, W -0.506, D -0.385, H -0.425, S -0.313, A -0.399, M -0.58, T -0.416, V 0.012, C -0.159, P -0.575, Y -0.393, N -0.567, G -0.868
D61: M -0.144, T -0.08, P -0.027, A -0.095, E 0.186, I -0.237, H -0.145, C -0.112, F -0.247, W -0.195, K -0.096, L -0.185, Q -0.178, G -0.063, Y -0.391
T48: A -0.699, C -0.286, Q -0.203, R -0.105, S -0.351, F -0.49, M -0.916, N -0.453, I -0.214, D -0.818, P -0.867, W -0.977, V -0.075, K 0.112, G -0.685, L -0.436
K57: R -0.041, V -0.637, G -0.58, L -0.562, Q -0.062, S -0.088, I -0.576, C -0.406, H -0.136, F -0.697, P -0.746, A -0.318, E -0.6, D -0.257, Y -0.411, T -0.167, W -0.677
G49: I -0.59, C -0.422, M -0.711, N -0.499, S -0.504, T -0.829, P -1.08, H -0.807, W -0.601, L -0.887, F -0.735, V -0.782, D -0.574, Y -0.805
L58: A -0.594, V -0.064, P -0.379, D -0.366, E -0.708, C -0.409, N -0.914, Q -0.656, T -0.301, S -0.64, R -0.12, Y -0.473, F -0.186, M -0.032, K -0.55, I -0.055
P60: E -0.076, A -0.059, N -0.26, Y -0.113, F -0.149, K 0.054, R -0.245, M -0.317, W -0.274, G 0.003, V -0.174, Q 0.087, T 0.088, I -0.18, C -0.15, L -0.434
R47: D -0.743, M -0.689, F -0.713, L -0.453, A -0.552, K 0.115, H -0.283, V -0.477, C -0.578, Q -0.588, T -0.678, Y -0.282, P -1.09, G -0.604, W -0.676, E 0.018
C59: W -0.324, I 0.038, T -0.192, L -0.049, Y 0.007, D -0.198, H -0.227, R -0.339, G -0.225, P -0.546, F 0.006, K -0.086, V 0.024, E -0.109, N -0.393, Q 0.117
T62: I -0.034, A -0.022, V -0.04, K -0.267, F -0.137, P 0.079, N 0.105, H 0.044, Q -0.092, G 0.046, C -0.198, E -0.004, L -0.214, D 0.021, R -0.046
I50: K 0.153, P -0.973, N -0.43, H -0.681, F -0.598, C -0.275, T -0.306, A -0.379, Q -0.093, D -0.91, E -0.341, M -0.298, L -0.383, G -0.823, S -0.541, W -0.693, Y -0.533, R 0.138
Y53: W 0.108, D 0.227, C 0.203, I 0.048, N 0.138, V 0.263, A 0.338, S 0.329, K 0.251, E 0.282, H -0.006, P 0.37, M 0.265, Q 0.154, R 0.211, F -0.079, T 0.223, L 0.077
K45: Q -0.157, H 0.081, M -0.317, D 0.104, Y -0.347, N 0.037, S -0.296, L -0.502, G -0.113, C -0.429, V -0.728, A -0.115, P -0.429, R -0.168, E 0.013, F -0.32, T -0.791, I -0.696
